In patent US20250011747:

Tested on: LMWK (natural substrate of KLK1)

Kb (KLK1 extracted from porcine pancreas), sequence (chain, as listed by the source): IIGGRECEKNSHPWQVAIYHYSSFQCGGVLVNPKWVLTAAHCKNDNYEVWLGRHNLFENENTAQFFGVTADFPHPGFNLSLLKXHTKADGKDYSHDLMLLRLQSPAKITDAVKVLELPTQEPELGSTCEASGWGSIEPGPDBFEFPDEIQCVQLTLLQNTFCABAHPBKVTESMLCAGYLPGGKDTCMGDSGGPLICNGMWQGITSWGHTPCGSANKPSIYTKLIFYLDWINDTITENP
PEG-Kb (pancreatic kallikrein I for injection, PEG10K-modified Kb), sequence (chain, as listed by the source): as above

| Substance | Bradykinin production µg/mg(enzyme), molar ratio of substrate to enzyme 1:1 (µg/mg(enzyme)) | Bradykinin production µg/mg(enzyme), molar ratio of substrate to enzyme 5:1 (µg/mg(enzyme)) | Bradykinin production µg/mg(enzyme), molar ratio of substrate to enzyme 10:1 (µg/mg(enzyme)) | Bradykinin production µg/mg(enzyme), molar ratio of substrate to enzyme 15:1 (µg/mg(enzyme)) | Bradykinin production µg/mg(enzyme), molar ratio of substrate to enzyme 20:1 (µg/mg(enzyme)) |
| --- | --- | --- | --- | --- | --- |
| Kb (KLK1 extracted from porcine pancreas) | 20.9 | 90.8 | 166 | 218 | 288 |
| PEG-Kb (pancreatic kallikrein I for injection, PEG10K-modified Kb) | 11.3 | 44.6 | 80 | 104 | 120 |
